Series [1] addresses Bacillus megaterium SqvB (DUF4867 family member) (Bacillus megaterium). Kind of series: SEC-MALS; SEC-MALLS; 100 ul injected at 2.7 mg/mL; running buffer 50 mM Tris pH 7.5, 300 mM NaCl; room temperature (20 ± 2 °C).
Substrate in the series “purified protein”: O=[N+]([O-])c1ccc(O[C@H]2O[C@H](CS(=O)(=O)O)[C@@H](O)[C@H](O)[C@H]2O)cc1
Kind of series: purified protein. It is filed as biochemical, Agathobacter rectalis. Particulars: PBS (50 mM sodium phosphate, 150 mM NaCl), pH 6.5, 30 °C.

This note sets out measurements from publication PMC11968277, “Sulfoglycolysis sustains Eubacterium rectale in low-fiber diets” (The Journal of Biological Chemistry, 2025).

For orientation: stoichiometry N means the number of molecules, sites or subunits per partner or assembly. Take “Bacillus megaterium SqvB (DUF4867 family member) (natural protein)”: the stoichiometry N in series [1] is 2.

B1: SftG (E. rectale SftG SQase) (Agathobacter rectalis ATCC 33656) (protein)
chain: MQIKVNDNEFQLFVGEKRILEHSKERPMIYVGVGQEDVDMYRGNFKITDYVTERFPLKLTDVIQTADTVRLCFESYIIAKIKCDENLCTIDFEQKDDRINRFWFRVAADKEEKCYGCGEQMSYFNLRGRNFPIWTSEPGVGRDKTTYVTWRSDVENKAGGDYYNTNYPQPTFVSTNKYYLHVDSTAYADFDFRNDSFHELQIWEVPKQIRIECADTYLKLLERITTYFGRQPKLPDWVYNGLIIGVQGGNERSFGLLDKTLDRNIKVAGIWCQDWCGKRVTSFGKRLQWDWKYHKEMYPDLPKKIKEINAKGIKFLGYVNPYLVNDGELYKEGKEKGYFATKADGSDYLVDFGEFYCGVVDLTNPEAFEWFKDIIKEYTLGIGIDGWMADFGEYLPTDDICLYSGKSPMIEHNHWPVLWAKCNYEAVKESGKLGDVVYFMRAGGAGSQKYCTLLWAGDQSVDFTIHDGLASVICGALSAGMMGCGLTHSDIGGYTSLFDNTRTKELFLRWAEMAMFTPFMRTHEGNRPDTNFQYYDDEDTMERLARLVDVYTMLAPYTKTLVEENADSGHPVQRPLFMHYESDAKAYDIQYEYLFGRDMLIAPVYEQDKHEWDVYLPQDEWVHLWTGEEYHGGEITVSAELGYTPAFYRKNSEFADIFEEIREKYGVK
notes: codon-optimised gene in pET29a(+), C-terminal His6 tag, expressed in E. coli NEB T7 Express
A word on the Km: it is the substrate concentration at which the rate is half of its maximum. A word on the kcat: it is the number of substrate molecules converted per active site and unit of time at saturation. The kcat/Km is the second-order rate constant that governs catalysis at low substrate concentration. As to B1, in the series “purified protein”, the Km came out at 478 ± 30 µM, the turnover number (kcat) amounted to 78.8 ± 3.9 s⁻¹ and the kcat/Km came out at 165000 ± 18000 M⁻¹ s⁻¹.
